Source: patent publication US20180037644A1 (Pfizer, published 2018)
Numbering of substitutions follows the chain as printed.

T1: human IL-33 (mm2) (human, UniProt O95760 112-270)
T1 chain: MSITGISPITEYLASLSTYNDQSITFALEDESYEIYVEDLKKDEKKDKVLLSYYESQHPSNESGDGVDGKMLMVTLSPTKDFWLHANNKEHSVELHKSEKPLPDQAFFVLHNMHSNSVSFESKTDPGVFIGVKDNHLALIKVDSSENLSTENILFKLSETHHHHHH

T2: cynomolgus monkey IL-33 (cys mut) (cynomolgus monkey)
T2 chain: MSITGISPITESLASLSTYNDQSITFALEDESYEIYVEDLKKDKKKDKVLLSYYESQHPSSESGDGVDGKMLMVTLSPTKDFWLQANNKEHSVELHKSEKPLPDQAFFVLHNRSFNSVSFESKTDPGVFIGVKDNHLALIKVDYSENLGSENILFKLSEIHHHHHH

B1: 9B3-563 (antibody, human IgG1, kappa, V domains shown)
VH: EVQLVETGGGLVQPGRSLKLSCVASGFTFSNYWMYWIRQAPGMGLEWVSSINNDGGNTYYLDSVKGRFTISRNNAENTVYLQMNSLRSEDTATYYCAKGHYYYSSYSFAYWGQGTLVTVSS
VL: DIQMTQSPSVLSASVGDRVTLSCKASHNINKHLDWYQQKVGEAPKLLIYFTNNLQTGIPSRFSGSGSGTDYTLTISSLQPEDVATYFCFQYNSGWTFGQGTKVEIKR
B2: 9B3-1 (antibody, human IgG1, kappa, V domains shown)
VH: B1 VH with F108L, A109G
VL: B1 VL
B3: 9B3-2A (antibody, human IgG1, kappa, V domains shown)
VH: B1 VH with Y102S, A109G
VL: B1 VL
B4: 9B3-2B (antibody, human IgG1, kappa, V domains shown)
VH: B1 VH with A97V, Y102S, F108I, A109D
VL: B1 VL
B5: 9B3-3 (antibody, human IgG1, kappa, V domains shown)
VH: B1 VH with Y102S, F108I, A109D
VL: B1 VL
B6: 9B3-5 (antibody, human IgG1, kappa, V domains shown)
VH: B1 VH with Y102S, S104T, A109G
VL: B1 VL
B7: 9B3-7 (antibody, human IgG1, kappa, V domains shown)
VH: B1 VH with H100R
VL: B1 VL
B8: 9B3-13 (antibody, human IgG1, kappa, V domains shown)
VH: B1 VH with K98R, S104N, Y110H
VL: B1 VL
B9: 9B3-15 (antibody, human IgG1, kappa, V domains shown)
VH: B1 VH with Y102S, Y110N
VL: B1 VL
B10: 9B3-31v2 (antibody, human IgG1, kappa, V domains shown)
VH: B1 VH with Y110F
VL: B1 VL
B11: 9B3-36 (antibody, human IgG1, kappa, V domains shown)
VH: B1 VH with S104T
VL: B1 VL
B12: 9B3-79 (antibody, human IgG1, kappa, V domains shown)
VH: B1 VH with K98R, S104T
VL: B1 VL
B13: IL33-153 (antibody, human IgG1, kappa, V domains shown)
VH: EVQLVESGGGLVQPGGSLRLSCAASGFTFSSYWMYWVRQAPGKGLEWVASITPNAGEDYYPDSVKGRFTISRDNAKNSLYLQMNSLRAEDTAVYYCARGHYYYTSYSLGYWGQGTLVTVSS
VL: DIQMTQSPSSLSASVGDRVTITCKASQNINKHLDWYQQKPGKAPKLLIYFTNNLQTGVPSRFSGSGSGTDFTLTISSLQPEDFATYYCFQYNQGWTFGGGTKVEIKR
B14: IL33-154 (antibody, human IgG1, kappa, V domains shown)
VH: B13 VH with D62E
VL: B13 VL
B15: IL33-155 (antibody, human IgG1, kappa, V domains shown)
VH: B13 VH with S50A, A55G
VL: B13 VL
B16: IL33-156 (antibody, human IgG1, kappa, V domains shown)
VH: B13 VH with S50A, A55G, D62E
VL: B13 VL
B17: IL33-157 (antibody, human IgG1, kappa, V domains shown)
VH: B13 VH with S50A
VL: B13 VL
B18: IL33-158 (antibody, human IgG1, kappa)
heavy: EVQLVESGGGLVQPGGSLRLSCAASGFTFSSYWMYWVRQAPGKGLEWVAAITPNAGEDYYPESVKGRFTISRDNAKNSLYLQMNSLRAEDTAVYYCARGHYYYTSYSLGYWGQGTLVTVSSASTKGPSVFPLAPSSKSTSGGTAALGCLVKDYFPEPVTVSWNSGALTSGVHTFPAVLQSSGLYSLSSVVTVPSSSLGTQTYICNVNHKPSNTKVDKKVEPKSCDKTHTCPPCPAPEAAGAPSVFLFPPKPKDTLMISRTPEVTCVVVDVSHEDPEVKFNWYVDGVEVHNAKTKPREEQYNSTYRVVSVLTVLHQDWLNGKEYKCKVSNKALPAPIEKTISKAKGQPREPQVYTLPPSREEMTKNQVSLTCLVKGFYPSDIAVEWESNGQPENNYKTTPPVLDSDGSFFLYSKLTVDKSRWQQGNVFSCSVMHEALHNHYTQKSLSLSPGK
light: DIQMTQSPSSLSASVGDRVTITCKASQNINKHLDWYQQKPGKAPKLLIYFTNNLQTGVPSRFSGSGSGTDFTLTISSLQPEDFATYYCFQYNQGWTFGGGTKVEIKRTVAAPSVFIFPPSDEQLKSGTASVVCLLNNFYPREAKVQWKVDNALQSGNSQESVTEQDSKDSTYSLSSTLTLSKADYEKHKVYACEVTHQGLSSPVTKSFNRGEC
B19: IL33-167 (antibody, human IgG1, kappa)
heavy: B18 heavy with A50S, E62D
light: B18 light with Q93N
B20: IL33-168 (antibody, human IgG1, kappa, V domains shown)
VH: B13 VH with D62E
VL: B13 VL with Q93N
B21: IL33-169 (antibody, human IgG1, kappa, V domains shown)
VH: B13 VH with S50A, A55G
VL: B13 VL with Q93N
B22: IL33-170 (antibody, human IgG1, kappa, V domains shown)
VH: B13 VH with S50A, A55G, D62E
VL: B13 VL with Q93N
B23: IL33-171 (antibody, human IgG1, kappa, V domains shown)
VH: B13 VH with S50A
VL: B13 VL with Q93N
B24: IL33-172 (antibody, human IgG1, kappa, V domains shown)
VH: B13 VH with S50A, D62E
VL: B13 VL with Q93N
B25: IL33-175 (antibody, human IgG1, kappa, V domains shown)
VH: B13 VH with S50A, D58T, D62E
VL: B13 VL with Q93N
B26: IL33-186 (antibody, human IgG1, kappa, V domains shown)
VH: B13 VH with S50A, A55G, D58T, D62E
VL: B13 VL
B27: IL33-187 (antibody, human IgG1, kappa, V domains shown)
VH: B13 VH with S50A, D58T
VL: B13 VL
B28: IL33-188 (antibody, human IgG1, kappa, V domains shown)
VH: B13 VH with S50A, D58T, D62E
VL: B13 VL

Target: T1, human IL-33 (mm2)
Test: cell-based or functional assay

Binder | estimated IC50, HEK293 ST2 NFkB [nM]
B1 | 0.177
B2 | 0.039
B3 | 0.056
B4 | 0.048
B5 | 0.048
B6 | 0.106
B7 | 0.069
B8 | 0.175
B9 | 0.101
B10 | 0.202
B11 | 0.251
B12 | 0.063

Target: T1, human IL-33 (mm2)
Test: cell-based or functional assay
Remark: another data set of the same source

Binder | IC50, HEK293 ST2 NFkB [nM] | IC50, whole blood mm2 [nM] | IC50, PBMC mm2 [nM]
B13 | 0.087 | 0.014 | –
B14 | 0.188 | 0.01 | 0.007
B15 | 0.171 | 0.025 | –
B16 | 0.116 | 0.004 | 0.004
B17 | 0.118 | 0.016 | –
B18 | 0.131 | 0.007 | 0.004
B19 | 0.049 | 0.008 | 0.001
B20 | 0.109 | 0.014 | –
B21 | 0.071 | 0.009 | –
B22 | 0.176 | 0.005 | –
B23 | 0.145 | 0.012 | –
B24 | 0.201 | 0.012 | –
B25 | 0.059 | 0.006 | 0.004
B26 | 0.109 | 0.012 | –
B27 | 0.15 | 0.006 | –
B28 | 0.147 | 0.017 | –

Target: T2, cynomolgus monkey IL-33 (cys mut)
Test: cell-based or functional assay

Binder | IC50, HEK293 ST2 NFkB cyno IL-33 [nM]
B13 | 0.122
B14 | 0.133
B15 | 0.239
B16 | 0.087
B17 | 0.161
B18 | 0.125
B19 | 0.062
B20 | 0.264
B21 | 0.176
B22 | 0.218
B23 | 0.216
B24 | 0.222
B25 | 0.086
B26 | 0.144
B27 | 0.282
B28 | 0.351

Target: T1, human IL-33 (mm2)
Test: BIAcore, IgG captured by anti-human Fc, 125 nM IL-33 (mm2)
Method: Binding to human and cynomolgus monkey IL-33 was measured by surface plasmon resonance using a BIAcore T200 instrument. An anti-human Fc antibody was immobilized on a CM5 chip, and anti-IL-33 antibodies were captured.

Binder | koff [s⁻¹]
B1 | 0.00109
B2 | 0.000569
B3 | 0.000437
B4 | 0.000506
B5 | 0.000424
B6 | 0.000325
B7 | 0.000589
B8 | 0.000326
B9 | 0.000479
B10 | 0.000706
B11 | 0.000289
B12 | 0.000543
